Drawing on article PMC10689493 (Nature Communications, 2023), this text covers Kd for 2 molecules.

The target in the assay is T1, biotinylated SARS-CoV-2 Spike protein (WA-2, 2 P) (SARS-CoV-2 WA-2 (entry: reference …, UniProt P0DTC2, stabilised, biotinylated)).
T1 construct: source: bought: R&D systems
Description: SPR. As to conditions: both partners purified.

B1: S2P6 FAB fragment (Fab, V domains shown)
VH: EVQLVQSGAEVKKPGASVKVSCKASGYTFTSQYMHWVRQAPGQGLEWIGIINPSGVHTSYAQKFQGRVTLTRDTSTSTLYMELSSLRSEDTAVYYCARGSPKGAFDYWGQGTLVTVSS
VL: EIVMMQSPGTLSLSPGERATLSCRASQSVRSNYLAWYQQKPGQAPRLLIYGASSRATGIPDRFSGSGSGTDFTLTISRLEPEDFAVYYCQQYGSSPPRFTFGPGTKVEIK
As a reminder, the Kd is the concentration at which binding is half-saturated. Low values mean a tighter complex, high ones a looser complex. B1 yielded a Kd of 0.4 nM.

B2: DH1057.1 FAB fragment (Fab, V domains shown)
VH: EVQLVESGTEVKKPGASVKVSCKTSGYIFTNYYIHWVRQAPGQGLEWMGIFNPNGGGTSYAQKFQGRITLTGNTSANTGYMVLRSLTSEDTAVYYCARDPRTSGDNDGFDMWGQGTKVTVSS
VL: VLTQSPATLSLSPGERATLSCRASQSLSSYNYLAWYQQKPGQAPRLLIYAASKRATGIPARFSGSGSGTDFTLTISSLEPEDFAVYFCQQRSNRPPAWTFGQGTKVEIK
For the molecule B2, the Kd stood at 11.5 nM. Against the preceding molecule, the Kd is about 29-fold higher.
